B1: PPO4A: nucleotide sequence encoding microbial protoporphyrinogen oxidase PPO4 (SEQ ID NO:4), Arabidopsis thaliana/soybean common codon usage bias (nucleic acid)
DNA: ATGAAAACCCTGATTCTTTACAGCAGTCATGATGGACAGACCAAGAAAATCTCAGAGTTCCTTACGGCGTTGTTGAATGGCGAAGTTCTAGTTGATGCTCTACGTGAAGATTATGATATTGAAACATTTGACCAAGTTATAATCGGAGCTTCCATAAGGTATGGTCACTTTTCTAAGACTTTAGACAGATTTGTGGTGAGAAACAGGGTACATCTGGAACAAAAACGAGCAGTATTCTTCTCTGTTAACTTAACTGCCCGAAAAGAAGGTAAAGACAATCCTGAAACTAATGTCTATGTCAGAAAGTTTCTCCAGAGAACAAAATGGCAACCAAAACTTGCTGCCGTCTTCGCAGGTGCACTCTTGTACCCGAGATATAAGTGGTTTGATCGTGTGATGATTCGGTTTATCATGAAGATTACTGGGGGAGAGACGGATATAACAAAGGAGATTGAGTACACAGATTGGGAAAAGGTTAGGGAGTTCGCTCAGAGAATCAACCGCCTTGAGAAATGA
modifications: PPO4A Nucleotide Sequence
B2: PPO3A: nucleotide sequence encoding microbial protoporphyrinogen oxidase PPO3 (SEQ ID NO:3), Arabidopsis thaliana/soybean common codon usage bias (nucleic acid)
DNA: ATGAGTGCCCTGTTGTTGTATTGTTCAACTGATGGTCAAACCAAGAAGATAATGACACAGATAGCTAATGAACTGAGACAACATGGTTATGAATGTGATGTGCGGGATCTTACTTCTGTTCAACAAAATCTCAATCTTTCAGCTTACAACAAAGTTTTGGTAGGAGCTTCCATAAGATATGGATACTTCAATAAAGCACTTGACAAGTTCATCACGAGGCACCTCTCTCAGTTAAACAACATGCCTTCTGCTTTCTTTGGTGTCAATTTGACTGCAAGAAAAGAAGAGAAGAGCACTCCCGAAACAAACAGTTACATCTGCAAGTTTCTAGACAAAACACCATGGAAACCAACCTTAACTGGAGTCTTCGCCGGGGCGCTTTTTTATCCTCGTTACAAATGGATTGATCGAGTGATGATTCAGCTTATCATGAAGATGACTAAAGGAGAAACCGATCCGACAAAAGAGATTGAGTATACAGATTGGAACAAGGTTTCGGAGTTTGCTACGAATTTTGCAAAGATTGGCTGA
modifications: PPO3A Nucleotide Sequence

Experiments:
Assay type in all cases: in vivo
Conditions in all cases: 7 DAT, number of plants of 24 per genotype, grades
[1] = system: Arabidopsis thaliana T1 plants; experiment: oxyfluorfen tolerance of transgenic Arabidopsis thaliana T1 plants (spray, grade of pesticide damage)
From the text: (§1) The transformed Arabidopsis thaliana T1 plants were initially selected using glufosinate herbicide. The Arabidopsis thaliana T1 plants (PPO1A) into which the PPO1A nucleotide sequence was introduced, the Arabidopsis thaliana T1 plants (PPO2A) into which the PPO2A nucleotide sequence was introduced, the Arabidopsis thaliana T1 plants (PPO3A) into which the PPO3A nucleotide sequence was introduced, the Arabidopsis thaliana T1 plants (PPO4A) into which the PPO4A nucleotide sequence was introduced, the Arabidopsis thaliana T1 plants (PPO5A) into which the PPO5A nucleotide sequence was introduced, the Arabidopsis thaliana T1 plants (PPO6A) into which the PPO6A nucleotide sequence was introduced, the Arabidopsis thaliana T1 plants (PPO7A) into which the PPO7A nucleotide sequence was introduced, the Arabidopsis thaliana T1 plants (PPO8A) into which the PPO8A nucleotide sequence was introduced, the Arabidopsis thaliana T1 plants (PPO9A) into which the PPO9A nucleotide sequence was introduced, the Arabidopsis thaliana T1 plants (PPO10A) into which the […] nucleotide sequence was introduced, the Arabidopsis thaliana T1 plants (PPO11A) into which the PPO11A nucleotide sequence was introduced, the Arabidopsis thaliana T1 plants (PPO12A) into which the PPO12A nucleotide sequence was introduced, the Arabidopsis thaliana T1 plants (PPO13A) into which the PPO13A nucleotide sequence was introduced, the Arabidopsis thaliana T1 plants (PPO14A) into which the PPO14A nucleotide sequence was introduced, the Arabidopsis thaliana T1 plants (PPO-ATA) into which the PPO-ATA nucleotide sequence was introduced, the Arabidopsis thaliana T1 plants (PPO-APA) into which the PPO-APA nucleotide sequence was introduced, the Arabidopsis thaliana T1 plants (control vector) into which the control vector was introduced, and the wild-type Arabidopsis thaliana plants (CK) (with 24 plants being included in each genotype) (18 days after sowing) were sprayed with oxyfluorfen at three concentrations (180 g ai/ha (one-fold field concentration, 1×), 720 g ai/ha (four-fold field concentration, 4×), and 0 g ai/ha (water, 0×)), saflufenacil at three concentrations (25 g ai/ha (one-fold field concentration, 1×), 100 g ai/ha (four-fold field concentration, 4×), and 0 g ai/ha (water, 0×)), flumioxazin at three concentrations (60 g ai/ha (one-fold field concentration, 1×), 240 g ai/ha (four-fold field concentration, 4×), and 0 g ai/ha (water, 0×), and sulfentrazone at three concentrations (450 g ai/ha (one-fold field concentration, 1×), 900 g ai/ha (two-fold field concentration, 2×), and 0 g ai/ha (water, 0×) to determine the tolerance of Arabidopsis thaliana to the herbicides. After 7 days of spraying (7 DAT), the damage level of each plant caused by the herbicide was evaluated according to the average of the damage levels (%) of plants (the average of the damage levels (%) of plants=the injured leaf area/the total leaf area×[…]), i.e., the grade of pesticide damage: grade 0 means that the growth status of plants is essentially consistent with those sprayed with the blank solvent (water); grade 1 means that the average of the damage levels of plants is less than 10%; grade 2 means that the average of the damage levels of plants is greater than […]; and grade 3 means that the average of the damage levels of plants is 100%. The plants having a growth status falling within grades 0 and 1 are classified as highly resistant plants; those having a growth status falling within grade 2 are classified as poorly resistant plants; and those having a growth status falling within grade 3 are classified as non-resistant plants.

[2] = system: Arabidopsis thaliana T1 plants; experiment: saflufenacil tolerance of transgenic Arabidopsis thaliana T1 plants (spray, grade of pesticide damage)
From the text: as §1

[3] = system: Arabidopsis thaliana T1 plants; experiment: flumioxazin tolerance of transgenic Arabidopsis thaliana T1 plants (spray, grade of pesticide damage)
From the text: as §1

[4] = system: Arabidopsis thaliana T1 plants; experiment: sulfentrazone tolerance of transgenic Arabidopsis thaliana T1 plants (spray, grade of pesticide damage)
From the text: as §1

| Molecule | The grade of pesticide damage/plant: grade 0 ([1]; oxyfluorfen 180 g ai/ha (1×)) [plant] | The grade of pesticide damage/plant: grade 1 ([1]; oxyfluorfen 180 g ai/ha (1×)) [plant] | The grade of pesticide damage/plant: grade 2 ([1]; oxyfluorfen 180 g ai/ha (1×)) [plant] | The grade of pesticide damage/plant: grade 3 ([1]; oxyfluorfen 180 g ai/ha (1×)) [plant] | The grade of pesticide damage/plant: grade 0 ([1]; oxyfluorfen 720 g ai/ha (4×)) [plant] | The grade of pesticide damage/plant: grade 1 ([1]; oxyfluorfen 720 g ai/ha (4×)) [plant] | The grade of pesticide damage/plant: grade 2 ([1]; oxyfluorfen 720 g ai/ha (4×)) [plant] | The grade of pesticide damage/plant: grade 3 ([1]; oxyfluorfen 720 g ai/ha (4×)) [plant] | The grade of pesticide damage/plant: grade 0 ([2]; saflufenacil 25 g ai/ha (1×)) [plant] | The grade of pesticide damage/plant: grade 1 ([2]; saflufenacil 25 g ai/ha (1×)) [plant] | The grade of pesticide damage/plant: grade 2 ([2]; saflufenacil 25 g ai/ha (1×)) [plant] | The grade of pesticide damage/plant: grade 3 ([2]; saflufenacil 25 g ai/ha (1×)) [plant] | The grade of pesticide damage/plant: grade 0 ([2]; saflufenacil 100 g ai/ha (4×)) [plant] | The grade of pesticide damage/plant: grade 1 ([2]; saflufenacil 100 g ai/ha (4×)) [plant] | The grade of pesticide damage/plant: grade 2 ([2]; saflufenacil 100 g ai/ha (4×)) [plant] | The grade of pesticide damage/plant: grade 3 ([2]; saflufenacil 100 g ai/ha (4×)) [plant] | The grade of pesticide damage/plant: grade 0 ([3]; flumioxazin 60 g ai/ha (1×)) [plant] | The grade of pesticide damage/plant: grade 1 ([3]; flumioxazin 60 g ai/ha (1×)) [plant] | The grade of pesticide damage/plant: grade 2 ([3]; flumioxazin 60 g ai/ha (1×)) [plant] | The grade of pesticide damage/plant: grade 3 ([3]; flumioxazin 60 g ai/ha (1×)) [plant] | also measured |
| --- | --- | --- | --- | --- | --- | --- | --- | --- | --- | --- | --- | --- | --- | --- | --- | --- | --- | --- | --- | --- | --- |
| B1 | 24 | 0 | 0 | 0 | 22 | 2 | 0 | 0 | 24 | 0 | 0 | 0 | 4 | 20 | 0 | 0 | 24 | 0 | 0 | 0 | The grade of pesticide damage/plant: grade 0 ([3]; flumioxazin 240 g ai/ha (4×)): 22 plant; The grade of pesticide damage/plant: grade 1 ([3]; flumioxazin 240 g ai/ha (4×)): 2 plant; The grade of pesticide damage/plant: grade 2 ([3]; flumioxazin 240 g ai/ha (4×)): 0 plant; The grade of pesticide damage/plant: grade 3 ([3]; flumioxazin 240 g ai/ha (4×)): 0 plant; The grade of pesticide: grade 0 ([4]; sulfentrazone 450 g ai/ha (1×)): 24; The grade of pesticide: grade 1 ([4]; sulfentrazone 450 g ai/ha (1×)): 0; The grade of pesticide: grade 2 ([4]; sulfentrazone 450 g ai/ha (1×)): 0; The grade of pesticide: grade 3 ([4]; sulfentrazone 450 g ai/ha (1×)): 0; The grade of pesticide: grade 0 ([4]; sulfentrazone 900 g ai/ha (2×)): 18; The grade of pesticide: grade 1 ([4]; sulfentrazone 900 g ai/ha (2×)): 6; The grade of pesticide: grade 2 ([4]; sulfentrazone 900 g ai/ha (2×)): 0; The grade of pesticide: grade 3 ([4]; sulfentrazone 900 g ai/ha (2×)): 0 |
| B2 | 24 | 0 | 0 | 0 | 20 | 4 | 0 | 0 | 24 | 0 | 0 | 0 | 2 | 22 | 0 | 0 | 24 | 0 | 0 | 0 | The grade of pesticide damage/plant: grade 0 ([3]; flumioxazin 240 g ai/ha (4×)): 24 plant; The grade of pesticide damage/plant: grade 1 ([3]; flumioxazin 240 g ai/ha (4×)): 0 plant; The grade of pesticide damage/plant: grade 2 ([3]; flumioxazin 240 g ai/ha (4×)): 0 plant; The grade of pesticide damage/plant: grade 3 ([3]; flumioxazin 240 g ai/ha (4×)): 0 plant; The grade of pesticide: grade 0 ([4]; sulfentrazone 450 g ai/ha (1×)): 24; The grade of pesticide: grade 1 ([4]; sulfentrazone 450 g ai/ha (1×)): 0; The grade of pesticide: grade 2 ([4]; sulfentrazone 450 g ai/ha (1×)): 0; The grade of pesticide: grade 3 ([4]; sulfentrazone 450 g ai/ha (1×)): 0; The grade of pesticide: grade 0 ([4]; sulfentrazone 900 g ai/ha (2×)): 20; The grade of pesticide: grade 1 ([4]; sulfentrazone 900 g ai/ha (2×)): 4; The grade of pesticide: grade 2 ([4]; sulfentrazone 900 g ai/ha (2×)): 0; The grade of pesticide: grade 3 ([4]; sulfentrazone 900 g ai/ha (2×)): 0 |
